In patent US7976843B2, “Method for screening peptides for use in immunotherapy” (Institut National de la Santa et de la Recherche Medicale …, priority 2000, dated 2011):
Read-outs that look alike come from different tables or passages of the source.

Tests used:
[1] = test system: HLA A2.1+/hTERT+ human tumor cells U266; assay: Human CTLs tested for killing of U266 tumor cells; format: cell-based; conditions: E/T 40/1, 20/1, 10/1; FIG. 10
Method: CTLs generated from human PBMCs, originating from healthy donors, stimulated in vitro with autologous dendritic cells loaded with the variant peptide mhp 572Y1 or the variant peptide mhp 988Y1 were tested for their ability to kill HLA A2.1+/hTERT+ human tumor cells: U266 [VONDERHEIDE, Immunity, 10, 11, (1999)], or HSS HLA A2.1−/hTERT+ human tumor cells: [VONDERHEIDE, Immunity, 10, 11, (1999)].

HLA A2.1 molecule [2] = target: T1, HLA A2.1 molecule (Homo sapiens, UniProt P04439, D140Y/D185E/D98H/E176V/E277Q/G131W/G231S/I119V/I121R/I166T/I218V/L300P/L318F/N151K/N90K/P208A/P217A/Q86G/Q94H/R138H/R169H/T345S); format: binding
HLA A2.1 molecule [3] = target: T1, HLA A2.1 molecule; assay: Stability of the peptide/HLA A2.1 complex (DC50) on T2 cells, flow cytometry; format: binding; conditions: for DC, Native peptides: HIV 1 peptides
Method: For each incubation time, the cells are then labeled, as indicated above, with the BB7.2 antibody, and analyzed by flow cytometry in order to evaluate the amount of peptide/HLA A2.1 complex present at their surface. […] The DC50 (dissociation complex: DC) is defined as being the time required for the loss of 50% of the HLA A2.1/peptide complexes stabilized at t=0.

[4] = test system: RMAS-HHD targets loaded with peptide; assay: Immunogenicity: CTL generation in HHD transgenic mice, 51Cr lysis of peptide-loaded targets; format: in vivo; conditions: for immunogenicity (in words): HHD mice (also humans); for Responders/total mice: HHD mice, 100 μg peptide s.c., responder: specific cytotoxicity >15% above unloaded targets
[5] = test system: RMA-HHH cells infected with recombinant vaccinia virus expressing gag or pol of HIV1; format: cell-based, human
[6] = test system: RMAS-HHD cells loaded with peptide; assay: Vax1/pet-neu immunization: CTL lysis of peptide-loaded RMAS-HHD cells; format: in vivo, HHD mice; conditions: CTLs of a Vax1/pet-neu immunized mouse; RMAS-HHD targets loaded with the named peptide; FIG. 14
Method: One week after the final immunization, their spleen cells are restimulated in vitro with B cells activated with LPS and loaded with each of the twelve peptides.
The cytotoxicity is evaluated using RMAS-HHD cells (target cells) loaded with the peptide corresponding to that with which the B cells were loaded or with a control peptide.
Six mice are immunized with either the Vax1/pet-neu construct or the vector Vax1. Their spleen cells are stimulated in vitro in a repeated manner with the B cells activated with LPS and loaded with each peptide to be tested (effector cells).
The cytotoxicity is tested after the third stimulation in vitro. The RMAS-HHD cells, loaded with the peptide corresponding to that with which the B cells were loaded, or with a control peptide, and the EL-4/HHD/neu cells are used as target cells.

EL-4/HHD/neu tumor cells = assay: Antitumor protection after peptide vaccination, EL-4/HHD/neu graft; conditions: 10 HHD mice, two injections two weeks apart; EL-4/HHD/neu graft
[7] = native TERT peptides, reference peptide HIVpol 589
[8] = native peptides, relative affinity vs reference peptide HIVpol 589, lower RA = stronger binding

RLFFYRKSV [mhp 572]
lysis of U266 tumor cells / natural presentation by human tumor cells [1]: naturally presented by the human tumor cells | RA (HLA A2.1 molecule [2]; [7]): 25.3 | DC50 (HLA A2.1 molecule [3]; native TERT peptides): <2 h

LLDTGADDTV [L10V]
RA, P1Y peptides (HLA A2.1 molecule [2]): 1.5 | RA, Native peptides (HLA A2.1 molecule [2]; HIV 1 peptides, […]): 10 | immunogenicity (in words) [4]: not immunogenic | natural presentation by cells expressing HLA-A2.1 and the viral protein [5]: naturally presented | DC, P1Y peptides (HLA A2.1 molecule [3]): 4 h | DC, Native peptides (HLA A2.1 molecule [3]): <2 h

EMMTACQGV [E9V]
RA, P1Y peptides (HLA A2.1 molecule [2]): 1.7 | immunogenicity (in words) [4]: not immunogenic | natural presentation by cells expressing HLA-A2.1 and the viral protein [5]: naturally presented | DC, P1Y peptides (HLA A2.1 molecule [3]): >6 h | DC, Native peptides (HLA A2.1 molecule [3]): <2 h

RLLQETELV [HER-2/neu 689]
specific lysis above background noise [6]: 30% | Responders/total mice [4]: 5/6

YLQPEQLQV [HER-2/neu 391Y1]
specific lysis above background noise [6]: 30% | RA (HLA A2.1 molecule [2]): 1.3 | DC50 (HLA A2.1 molecule [3]): 6 h

DLQVNSLQTV [mhp 988]
lysis of U266 tumor cells / natural presentation by human tumor cells [1]: naturally presented by the human tumor cells | RA (HLA A2.1 molecule [2]; [7]): 28.6 | DC50 (HLA A2.1 molecule [3]; native TERT peptides): <2 h

YLEEITGYL [HER-2/neu 402Y1]
specific lysis above background noise [6]: 30% | RA (HLA A2.1 molecule [2]): 3.7 | tumor size at D28 (EL-4/HHD/neu tumor cells): 323±116 mm^2 | DC50 (HLA A2.1 molecule [3]): 4 h

QLMPYGCLL [HER-2/neu 799, reference compound]
specific lysis above background noise [6]: 30% | RA (HLA A2.1 molecule [2]; [8]): 1.0 | Responders/total mice [4]: 3/4 | DC50 Y1-DC50 WT (HLA A2.1 molecule [3]; […], arrow in neighbouring cell gives direction): >2 h | DC50 (HLA A2.1 molecule [3]; native peptides, time for loss of 50% of HLA A2.1/peptide complexes): 6 to 8 h

VMAGVGSPYV [HER-2/neu 773, reference compound]
specific lysis above background noise [6]: 30% | RA (HLA A2.1 molecule [2]; [8]): 1.7 | Responders/total mice [4]: 2/3
